{
  "source": "paper PMC11265280",
  "key": {"[1]": {"target": "MERS-CoV spike RBD (Middle East respiratory syndrome-related coronavirus) (UniProt K9N5Q8)", "conditions": "cited from earlier work"}, "[2]": {"target": "soluble murine DPP4-IgG1 (murine) (UniProt P28843)", "assay": "SPR; BIAcore X-100, CM5 chip, room temperature; soluble DPP4-IgG1 immobilised by amine coupling; S1-RBD injected at 0.125-4.0 µM in 0.01 M HEPES, 0.15 M NaCl, 0.5% surfactant P20, 3 mM EDTA, pH 7.4; reference cell with BSA; steady-state affinity model"}, "[3]": {"target": "soluble porcine DPP4-IgG1 (porcine) (UniProt P22411)", "assay": "SPR; BIAcore X-100, CM5 chip, room temperature; soluble DPP4-IgG1 immobilised by amine coupling; S1-RBD injected at 0.125-4.0 µM in 0.01 M HEPES, 0.15 M NaCl, 0.5% surfactant P20, 3 mM EDTA, pH 7.4; reference cell with BSA; steady-state affinity model"}, "[4]": {"target": "PHEV spike S1 receptor-binding domain, Fc-tagged", "assay": "co-immunoprecipitation, quantified band intensity", "conditions": "293T cells; n = 3; parent: est. 100; read off a plot"}},
  "data": [
    {"substance": "DPP4 (from UniProt P27487)", "values": [
      {"measurement": "Kd", "setting": "[1]", "result": 17, "unit": "nM"}
    ]},
    {"substance": "monomeric PHEV S1-RBD (SPR analyte) (domain or fragment)", "values": [
      {"measurement": "Kd", "setting": "[2]", "result": 361, "unit": "nM"},
      {"measurement": "Kd", "setting": "[3]", "result": 174, "unit": "nM"}
    ]},
    {"substance": "murine dipeptidyl peptidase 4, GFP-tagged (from UniProt P28843) A294E; R295E", "values": [
      {"measurement": "percent of parent (% of RBD binding)", "setting": "[4]", "result": 95}
    ]},
    {"substance": "murine dipeptidyl peptidase 4, GFP-tagged (from UniProt P28843) A294T; R295T", "values": [
      {"measurement": "percent of parent (% of RBD binding)", "setting": "[4]", "result": 100}
    ]},
    {"substance": "murine dipeptidyl peptidase 4, GFP-tagged (from UniProt P28843) K267A", "values": [
      {"measurement": "percent of parent (% of RBD binding)", "setting": "[4]", "result": 110}
    ]},
    {"substance": "murine dipeptidyl peptidase 4, GFP-tagged (from UniProt P28843) N229Q", "values": [
      {"measurement": "percent of parent (% of RBD binding)", "setting": "[4]", "result": 350}
    ]},
    {"substance": "murine dipeptidyl peptidase 4, GFP-tagged (from UniProt P28843) N321Q", "values": [
      {"measurement": "percent of parent (% of RBD binding)", "setting": "[4]", "result": 250}
    ]},
    {"substance": "murine dipeptidyl peptidase 4, GFP-tagged (from UniProt P28843) Q344A", "values": [
      {"measurement": "percent of parent (% of RBD binding)", "setting": "[4]", "result": 120}
    ]},
    {"substance": "murine dipeptidyl peptidase 4, GFP-tagged (from UniProt P28843) R317A", "values": [
      {"measurement": "percent of parent (% of RBD binding)", "setting": "[4]", "result": 92}
    ]},
    {"substance": "murine dipeptidyl peptidase 4, GFP-tagged (from UniProt P28843) T336E", "values": [
      {"measurement": "percent of parent (% of RBD binding)", "setting": "[4]", "result": 100}
    ]},
    {"substance": "porcine dipeptidyl peptidase 4, GFP-tagged (from UniProt P22411) K267A", "values": [
      {"measurement": "percent of parent (% of RBD binding)", "setting": "[4]", "result": 84}
    ]},
    {"substance": "porcine dipeptidyl peptidase 4, GFP-tagged (from UniProt P22411) L294E; I295E", "values": [
      {"measurement": "percent of parent (% of RBD binding)", "setting": "[4]", "result": 110}
    ]},
    {"substance": "porcine dipeptidyl peptidase 4, GFP-tagged (from UniProt P22411) L294T; I295T", "values": [
      {"measurement": "percent of parent (% of RBD binding)", "setting": "[4]", "result": 82}
    ]},
    {"substance": "porcine dipeptidyl peptidase 4, GFP-tagged (from UniProt P22411) N229Q", "values": [
      {"measurement": "percent of parent (% of RBD binding)", "setting": "[4]", "result": 190}
    ]},
    {"substance": "porcine dipeptidyl peptidase 4, GFP-tagged (from UniProt P22411) N321Q", "values": [
      {"measurement": "percent of parent (% of RBD binding)", "setting": "[4]", "result": 170}
    ]},
    {"substance": "porcine dipeptidyl peptidase 4, GFP-tagged (from UniProt P22411) Q344A", "values": [
      {"measurement": "percent of parent (% of RBD binding)", "setting": "[4]", "result": 130}
    ]},
    {"substance": "porcine dipeptidyl peptidase 4, GFP-tagged (from UniProt P22411) R317A", "values": [
      {"measurement": "percent of parent (% of RBD binding)", "setting": "[4]", "result": 98}
    ]},
    {"substance": "porcine dipeptidyl peptidase 4, GFP-tagged (from UniProt P22411) R336E", "values": [
      {"measurement": "percent of parent (% of RBD binding)", "setting": "[4]", "result": 120}
    ]}
  ]
}
